Source: patent US20200299400A1 (published 2020)

T1: human CD73 on human cell lines (human, UniProt P21589 27-549)
T1 sequence (looked up): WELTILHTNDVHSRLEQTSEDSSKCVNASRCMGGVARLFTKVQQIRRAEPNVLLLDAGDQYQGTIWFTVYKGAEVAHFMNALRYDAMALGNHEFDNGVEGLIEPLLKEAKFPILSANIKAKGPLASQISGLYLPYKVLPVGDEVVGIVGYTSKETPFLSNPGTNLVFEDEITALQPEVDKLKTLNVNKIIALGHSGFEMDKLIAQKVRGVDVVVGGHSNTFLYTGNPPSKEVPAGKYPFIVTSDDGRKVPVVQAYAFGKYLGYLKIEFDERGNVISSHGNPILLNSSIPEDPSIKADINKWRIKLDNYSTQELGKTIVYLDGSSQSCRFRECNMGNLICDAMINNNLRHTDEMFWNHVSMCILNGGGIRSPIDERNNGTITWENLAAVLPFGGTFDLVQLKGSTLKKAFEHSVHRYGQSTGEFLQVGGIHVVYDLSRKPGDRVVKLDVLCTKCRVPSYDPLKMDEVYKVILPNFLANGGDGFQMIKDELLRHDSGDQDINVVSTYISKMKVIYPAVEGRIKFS


Tests used:
hCD40-Fc = target: T2, hCD40-Fc (human, UniProt P25942 21-193); assay: SPR; dAb-Fc analyte on immobilized hCD40-Fc; avidity-influenced KDapparent
T2 construct: Immobilized on the sensor chip; construct not described; not shown: Fc part of hCD40-Fc not described
T2 sequence (P25942 21-193): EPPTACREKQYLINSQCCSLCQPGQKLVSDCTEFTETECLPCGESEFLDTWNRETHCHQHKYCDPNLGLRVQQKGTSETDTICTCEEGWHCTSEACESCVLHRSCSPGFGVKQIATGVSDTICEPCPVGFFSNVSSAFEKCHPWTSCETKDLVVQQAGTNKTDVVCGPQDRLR

[1] = target: T1, human CD73 on human cell lines; assay: cell-based or functional assay

Row | Binder | Kd (hCD40-Fc) [nM] | % internalization, H2228 [1] [%]
1 | 3h56-269-IgG1.3f (Fc fusion) EVQLLESGGGLVQPGGSLRLSCAASGFTFRDYEMWWVRQAPGKGLERVSAINPQGTRTYYADSVKGRFTISRDNSKNTLYLQMNSLRAEDTAVYYCAKLPFRFSDRGQGTLVTVSSASTEPKSCDKTHTCPPCPAPEAEGAPSVFLFPPKPKDTLMISRTPEVTCVVVDVSHEDPEVKFNWYVDGVEVHNAKTKPREEQYNSTYRVVSVLTVLHQDWLNGKEYKCKVSNKALPAPIEKTISKAKGQPREPQVYTLPPSREEMTKNQVSLTCLVKGFYPSDIAVEWESNGQPENNYKTTPPVLDSDGSFFLYSKLTVDKSRWQQGNVFSCSVMHEALHNHYTQKSLSLSPGK | < 1 | 
2 | 3h56-269-IgG1.1f (Fc fusion) EVQLLESGGGLVQPGGSLRLSCAASGFTFRDYEMWWVRQAPGKGLERVSAINPQGTRTYYADSVKGRFTISRDNSKNTLYLQMNSLRAEDTAVYYCAKLPFRFSDRGQGTLVTVSSASTEPKSCDKTHTCPPCPAPEAEGAPSVFLFPPKPKDTLMISRTPEVTCVVVDVSHEDPEVKFNWYVDGVEVHNAKTKPREEQYNSTYRVVSVLTVLHQDWLNGKEYKCKVSNKALPSSIEKTISKAKGQPREPQVYTLPPSREEMTKNQVSLTCLVKGFYPSDIAVEWESNGQPENNYKTTPPVLDSDGSFFLYSKLTVDKSRWQQGNVFSCSVMHEALHNHYTQKSLSLSPGK | < 1 | 
3 | CD73.3-IgG1.1 (antibody, V domains shown) VH: EVQLVESGGGLVQPGRSLRLSCAASGFTFDDYAMHWVRQAPGKGLEWVSGISWKSGSIGYADSVKGRFTISRDNAKNSLYLQMNSLRAEDTVLYYCVKGYYVILTGLDYWGQGTLVTVSS VL: not shown |  | 47
